# Reference: US20220357348A1 (FARON PHARMACEUTICALS, published 2022)
# B1: humanized anti-Clever-1 antibody FP-1305 (DSM ACC3361) (antibody, human IgG4 S228P, kappa, V domains shown)
# VH: QVTLKESGPTLVKPTQTLTLTCSFSGFSLSTSGMGIGWIRQPPGKALEWLAHIWWDDDKRYNPALKSRLTISKDTSKNQVVLTMTNMDPVDTATYYCARHYGYDPYYAMDYWGQGTLVTVSS
# VL: EIVLTQSPGTLSLSPGERATLSCTASSSVSSSYLHWYQQKPGKAPKLLIYRTSNLASGVPSRFSGSGSGTDYTLTISSLQPEDFATYYCHQYHRSPPTFGQGTKLEIKR
# notes: Its isotype control is HuIgG4 S241P L248E; also called bexmarilimab
# Molecular target: T1, human Clever-1 (Common Lymphatic Endothelial and Vascular Endothelial Receptor-1) expressed on KG-1 cells (human, UniProt Q9NY15 26-2570)
# T1 construct: whole, on cells; also called Stabilin-1
# Test: flow cytometry on KG-1 cells, 4 C, titration 10-0.014 µg/mL, AlexaFluor 647 anti-HuIgG secondary
# Procedure: Excess primary antibody was removed and the cells were then incubated for a further 30 minutes at 4° C. with either an AlexaFluor 647 labelled anti-HulgG or PE labelled anti-rat IgG antibody (ThermoFisher Scientific, Loughborough, UK) at 10 μg/mL. The unbound secondary antibody was washed away, and the cells fixed with BD CellFix (BD Biosciences, Oxford, UK) before analysis. Samples were acquired on an Attune NxT focussing cytometer equipped with a blue and red laser (ThermoFisher Scientific, Loughborough, UK) using the BL2 and RL1 channels for PE and AlexaFluor 647 dyes, respectively. The MFI values were plotted against the antibody concentration. […] The MFI in the absence of primary antibody is represented by a dotted line.
# T1 sequence (Q9NY15 26-2570): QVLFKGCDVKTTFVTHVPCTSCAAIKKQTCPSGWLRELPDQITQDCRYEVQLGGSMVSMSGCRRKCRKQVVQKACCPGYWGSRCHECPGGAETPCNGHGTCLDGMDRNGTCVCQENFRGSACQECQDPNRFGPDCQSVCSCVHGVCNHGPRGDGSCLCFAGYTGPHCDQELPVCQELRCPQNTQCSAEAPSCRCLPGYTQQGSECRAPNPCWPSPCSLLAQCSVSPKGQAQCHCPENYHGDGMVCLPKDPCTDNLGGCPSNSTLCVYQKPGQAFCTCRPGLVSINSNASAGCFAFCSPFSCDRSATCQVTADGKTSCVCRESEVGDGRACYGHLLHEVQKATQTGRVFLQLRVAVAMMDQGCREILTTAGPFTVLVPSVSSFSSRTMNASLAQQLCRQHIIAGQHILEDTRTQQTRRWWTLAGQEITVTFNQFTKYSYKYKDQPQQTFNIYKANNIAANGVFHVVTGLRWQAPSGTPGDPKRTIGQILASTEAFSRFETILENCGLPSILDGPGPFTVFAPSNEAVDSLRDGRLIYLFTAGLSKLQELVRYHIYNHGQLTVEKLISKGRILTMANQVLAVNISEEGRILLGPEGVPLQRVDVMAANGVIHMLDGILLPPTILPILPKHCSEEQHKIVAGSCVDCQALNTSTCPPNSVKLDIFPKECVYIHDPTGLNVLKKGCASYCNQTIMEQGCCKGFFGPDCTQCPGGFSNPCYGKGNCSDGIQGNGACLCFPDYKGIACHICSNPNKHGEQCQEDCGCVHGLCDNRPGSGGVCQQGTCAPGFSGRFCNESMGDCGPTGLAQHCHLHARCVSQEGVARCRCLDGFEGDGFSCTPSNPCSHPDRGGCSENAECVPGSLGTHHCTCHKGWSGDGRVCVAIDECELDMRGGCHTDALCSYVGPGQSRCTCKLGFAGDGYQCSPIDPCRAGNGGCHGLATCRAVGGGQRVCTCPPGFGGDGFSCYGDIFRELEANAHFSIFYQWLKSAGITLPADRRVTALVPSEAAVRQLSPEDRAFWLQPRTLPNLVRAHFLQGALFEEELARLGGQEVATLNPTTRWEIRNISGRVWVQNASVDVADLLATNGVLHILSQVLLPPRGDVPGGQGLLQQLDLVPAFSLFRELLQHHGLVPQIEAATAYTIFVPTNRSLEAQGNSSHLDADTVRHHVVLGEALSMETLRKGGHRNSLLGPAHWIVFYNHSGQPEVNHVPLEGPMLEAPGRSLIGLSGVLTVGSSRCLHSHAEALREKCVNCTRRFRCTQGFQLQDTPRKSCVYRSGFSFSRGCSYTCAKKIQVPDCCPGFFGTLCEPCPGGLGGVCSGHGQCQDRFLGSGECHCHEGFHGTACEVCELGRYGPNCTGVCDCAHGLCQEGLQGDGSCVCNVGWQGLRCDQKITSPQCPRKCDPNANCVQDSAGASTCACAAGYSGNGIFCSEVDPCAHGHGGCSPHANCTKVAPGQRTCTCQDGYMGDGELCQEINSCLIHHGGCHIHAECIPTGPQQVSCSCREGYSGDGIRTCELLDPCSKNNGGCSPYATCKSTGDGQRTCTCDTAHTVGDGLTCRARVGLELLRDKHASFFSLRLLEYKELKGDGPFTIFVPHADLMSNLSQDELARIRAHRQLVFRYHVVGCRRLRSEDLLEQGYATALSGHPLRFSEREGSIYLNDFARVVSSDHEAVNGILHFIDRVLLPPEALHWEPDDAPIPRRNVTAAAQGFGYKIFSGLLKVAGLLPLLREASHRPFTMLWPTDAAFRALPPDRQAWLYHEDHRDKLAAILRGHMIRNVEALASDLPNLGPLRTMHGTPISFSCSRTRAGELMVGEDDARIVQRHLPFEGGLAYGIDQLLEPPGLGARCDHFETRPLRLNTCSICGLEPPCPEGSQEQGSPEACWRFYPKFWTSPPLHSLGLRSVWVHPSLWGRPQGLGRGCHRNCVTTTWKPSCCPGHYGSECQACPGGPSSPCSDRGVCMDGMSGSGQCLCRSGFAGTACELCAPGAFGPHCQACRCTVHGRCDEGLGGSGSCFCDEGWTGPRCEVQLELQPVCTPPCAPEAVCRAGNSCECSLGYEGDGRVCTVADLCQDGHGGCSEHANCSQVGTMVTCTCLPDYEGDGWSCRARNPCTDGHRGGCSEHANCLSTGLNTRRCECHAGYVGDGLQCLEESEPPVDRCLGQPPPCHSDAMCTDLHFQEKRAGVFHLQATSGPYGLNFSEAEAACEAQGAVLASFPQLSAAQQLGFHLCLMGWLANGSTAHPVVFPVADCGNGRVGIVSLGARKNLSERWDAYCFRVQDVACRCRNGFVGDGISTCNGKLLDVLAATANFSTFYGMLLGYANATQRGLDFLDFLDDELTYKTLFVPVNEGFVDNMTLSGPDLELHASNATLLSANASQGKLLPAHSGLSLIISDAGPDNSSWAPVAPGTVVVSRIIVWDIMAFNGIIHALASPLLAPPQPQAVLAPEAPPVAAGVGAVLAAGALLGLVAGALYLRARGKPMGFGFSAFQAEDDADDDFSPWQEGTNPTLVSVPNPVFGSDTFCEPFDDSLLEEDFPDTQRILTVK
binder,measurement,value
B1,binding result,binds
